In patent publication US20250326807A1 (published 2025):

Biological target: T1, Recombinantly expressed fused calprotectin (His6-linker-S100A9-linker-S100A8), product code B-RCAL, BÜHLMANN … (human, UniProt P06702 1-114; P05109 1-93)
T1 construct: Bought fusion protein; also called CP; human recombinant calprotectin
T1 sequence: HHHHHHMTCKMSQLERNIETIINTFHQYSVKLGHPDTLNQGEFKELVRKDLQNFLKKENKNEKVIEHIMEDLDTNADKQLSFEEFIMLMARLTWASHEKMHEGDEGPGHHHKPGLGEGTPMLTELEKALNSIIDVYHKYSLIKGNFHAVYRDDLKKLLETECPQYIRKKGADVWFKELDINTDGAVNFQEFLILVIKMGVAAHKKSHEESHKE
Test: fluorescence polarization, 20 nM fluorescent peptide, calprotectin titrated
Experimental: The reaction mixture was incubated at 30° C. for 1 hr, and the completion of the reaction was assessed by LCMS. The reaction was stopped by addition of HCOOH (200 μL) and the cyclized peptide was lyophilized. The final purification was performed as before with a reversed-phase C18 column (X-bridge peptide BEH C18 5 μm, 300 Å, 10×250 mm, Waters) applying a flow rate of 6 mL/min and an appropriate linear gradient in 40 min. Fractions containing the desired peptide were lyophilized. The purity of the peptides was assessed by analysing around 20 μg of peptide by RP-HPLC (1260 HPLC system, Agilent) using a C18 column (ZORBAX 300SB-C18, 5 μm, 300 Å, 4.6×250 mm, Agilent). Peptides were run at a flow rate of 1 mL min⁻¹ with a linear gradient of 0-100% of solvent B over 15 min (A: 94.9% H₂O, 5% ACN and 0.1% TFA; B: 99.9% ACN and 0.1% TFA). The mass was determined by electrospray ionization mass spectrometry (ESI-MS) in positive ion mode on a single quadrupole liquid chromatography mass spectrometer (LCMS-2020, Shimadzu). […] Fluorescence anisotropy was measured on a microwell plate reader (Infinite M200Pro, Tecan), with a filter for excitation at 485 nm and emission at 535 nm. Dissociation constant (Kd) was calculated using the following equation on Prism 5 (GraphPad): […]

Kd: ~24 nM
B1: Peptide 3 Isomer 1 (RCPECVAFPMFQCHWYCG with cross-linked neighboring cysteines) (peptide)
peptide: RCPECVAFPMFQCHWYCG
modifications: neighboring cysteines cross-linked by chemical linkers (linker not named); N-terminal 5(6)-carboxyfluorescein; synthesised on rink amide AM resin
notes: Both pairs of neighboring cysteines bridged
